Measurements: paper PMC5916898, “Global profiling of protein–DNA and protein–nucleosome binding affinities using quantitative mass spectrometry”

T1: FOXL2 (Homo sapiens, UniProt P58012)
T1 sequence: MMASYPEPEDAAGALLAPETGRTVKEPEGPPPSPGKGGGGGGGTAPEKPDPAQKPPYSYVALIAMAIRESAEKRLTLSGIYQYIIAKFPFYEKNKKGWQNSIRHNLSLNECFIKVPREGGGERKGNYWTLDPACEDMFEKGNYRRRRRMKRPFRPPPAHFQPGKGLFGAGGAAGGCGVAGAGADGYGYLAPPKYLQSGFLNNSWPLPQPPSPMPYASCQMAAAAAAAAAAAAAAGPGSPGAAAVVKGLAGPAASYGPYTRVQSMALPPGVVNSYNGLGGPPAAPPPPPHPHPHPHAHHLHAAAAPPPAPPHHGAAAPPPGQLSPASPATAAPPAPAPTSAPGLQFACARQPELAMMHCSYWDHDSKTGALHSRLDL

T2: ZNF281 (Homo sapiens, UniProt Q9Y2X9)
T2 sequence: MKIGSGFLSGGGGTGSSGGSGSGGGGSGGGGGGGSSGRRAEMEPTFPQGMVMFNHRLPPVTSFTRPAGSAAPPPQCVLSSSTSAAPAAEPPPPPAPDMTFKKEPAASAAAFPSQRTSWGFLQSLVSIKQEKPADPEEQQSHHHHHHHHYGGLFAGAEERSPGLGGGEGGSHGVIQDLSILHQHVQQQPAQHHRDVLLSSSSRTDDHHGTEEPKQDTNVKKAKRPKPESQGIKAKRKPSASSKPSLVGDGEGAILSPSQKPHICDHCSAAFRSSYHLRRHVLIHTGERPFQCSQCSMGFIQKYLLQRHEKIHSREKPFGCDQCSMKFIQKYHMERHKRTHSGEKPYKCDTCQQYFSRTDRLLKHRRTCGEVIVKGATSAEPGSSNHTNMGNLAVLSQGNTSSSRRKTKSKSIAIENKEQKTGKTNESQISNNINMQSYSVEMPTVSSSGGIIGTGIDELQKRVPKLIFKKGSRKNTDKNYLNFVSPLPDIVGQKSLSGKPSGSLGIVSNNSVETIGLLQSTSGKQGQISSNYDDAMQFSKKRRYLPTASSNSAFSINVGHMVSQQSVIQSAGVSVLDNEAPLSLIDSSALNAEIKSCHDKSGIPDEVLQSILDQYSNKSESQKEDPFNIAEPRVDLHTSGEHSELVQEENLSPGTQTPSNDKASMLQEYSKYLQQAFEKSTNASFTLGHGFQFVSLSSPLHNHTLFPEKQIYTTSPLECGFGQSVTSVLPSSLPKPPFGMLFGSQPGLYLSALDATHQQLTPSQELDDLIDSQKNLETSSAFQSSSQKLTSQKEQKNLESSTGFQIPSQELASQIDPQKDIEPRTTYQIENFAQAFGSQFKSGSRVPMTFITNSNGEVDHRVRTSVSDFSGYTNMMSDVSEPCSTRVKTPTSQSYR


Legend:
ZBTB7B = ZBTB7B (Homo sapiens, UniProt O15156); assay: pulldown; 150 mM NaCl, 50 mM Tris pH 8, 0.25% NP-40, 1 mM TCEP; 4 C, 2 h; 100 ug HeLa nuclear lysate; settings: protein: extract; label: 5' biotin (strand 1)
ZBTB7B, sequence (O15156 whole entry): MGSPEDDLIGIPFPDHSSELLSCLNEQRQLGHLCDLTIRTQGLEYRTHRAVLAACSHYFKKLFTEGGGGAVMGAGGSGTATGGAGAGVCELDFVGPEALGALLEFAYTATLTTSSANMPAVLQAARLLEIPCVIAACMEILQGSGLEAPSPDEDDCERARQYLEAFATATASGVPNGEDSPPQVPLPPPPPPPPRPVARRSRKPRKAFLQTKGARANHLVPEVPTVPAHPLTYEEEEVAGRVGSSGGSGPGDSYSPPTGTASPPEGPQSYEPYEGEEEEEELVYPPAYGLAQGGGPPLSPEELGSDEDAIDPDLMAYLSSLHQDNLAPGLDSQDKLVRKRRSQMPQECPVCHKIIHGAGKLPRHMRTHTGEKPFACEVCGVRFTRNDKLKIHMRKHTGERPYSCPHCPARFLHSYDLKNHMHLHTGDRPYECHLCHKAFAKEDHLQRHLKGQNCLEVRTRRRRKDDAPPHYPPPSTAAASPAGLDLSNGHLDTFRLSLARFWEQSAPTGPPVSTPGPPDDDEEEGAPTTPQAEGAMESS

KLF10 = KLF10 (Homo sapiens, UniProt Q13118); assay: as above; settings: protein: extract; label: 5' biotin (strand 1)
KLF10, sequence (Q13118 whole entry): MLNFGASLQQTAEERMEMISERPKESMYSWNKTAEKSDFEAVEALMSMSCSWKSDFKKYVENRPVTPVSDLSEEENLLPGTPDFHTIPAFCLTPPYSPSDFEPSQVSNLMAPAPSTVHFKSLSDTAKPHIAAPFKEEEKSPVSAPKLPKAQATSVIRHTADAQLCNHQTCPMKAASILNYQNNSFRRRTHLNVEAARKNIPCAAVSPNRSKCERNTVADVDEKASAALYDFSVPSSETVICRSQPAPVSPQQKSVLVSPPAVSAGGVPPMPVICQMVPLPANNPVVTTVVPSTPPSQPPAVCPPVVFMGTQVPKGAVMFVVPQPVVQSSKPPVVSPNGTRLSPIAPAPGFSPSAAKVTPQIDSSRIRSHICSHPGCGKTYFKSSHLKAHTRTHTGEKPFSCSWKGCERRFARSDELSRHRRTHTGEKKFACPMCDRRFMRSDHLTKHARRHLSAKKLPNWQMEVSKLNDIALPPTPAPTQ

TFAP2A = TFAP2A (Homo sapiens, UniProt P05549); assay: as above; settings: protein: extract; label: 5' biotin (strand 1)
TFAP2A, sequence (P05549 whole entry): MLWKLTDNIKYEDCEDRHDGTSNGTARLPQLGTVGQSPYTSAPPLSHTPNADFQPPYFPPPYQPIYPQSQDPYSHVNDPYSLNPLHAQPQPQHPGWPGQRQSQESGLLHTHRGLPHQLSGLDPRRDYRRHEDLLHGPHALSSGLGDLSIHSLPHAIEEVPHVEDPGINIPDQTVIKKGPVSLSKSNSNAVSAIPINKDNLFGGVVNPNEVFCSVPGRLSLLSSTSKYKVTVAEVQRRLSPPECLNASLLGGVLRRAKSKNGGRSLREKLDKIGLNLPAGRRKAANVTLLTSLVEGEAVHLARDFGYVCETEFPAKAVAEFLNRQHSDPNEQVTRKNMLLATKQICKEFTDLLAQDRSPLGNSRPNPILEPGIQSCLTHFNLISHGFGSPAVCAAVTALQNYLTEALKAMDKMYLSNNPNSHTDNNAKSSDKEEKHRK

FOXL2 = molecular target: T1, FOXL2; assay: as above; settings: protein: extract; label: 5' biotin (strand 1)
NFIA = NFIA (Homo sapiens, UniProt Q12857); assay: as above; settings: protein: extract; label: 5' biotin (strand 1)
NFIA, sequence (Q12857 whole entry): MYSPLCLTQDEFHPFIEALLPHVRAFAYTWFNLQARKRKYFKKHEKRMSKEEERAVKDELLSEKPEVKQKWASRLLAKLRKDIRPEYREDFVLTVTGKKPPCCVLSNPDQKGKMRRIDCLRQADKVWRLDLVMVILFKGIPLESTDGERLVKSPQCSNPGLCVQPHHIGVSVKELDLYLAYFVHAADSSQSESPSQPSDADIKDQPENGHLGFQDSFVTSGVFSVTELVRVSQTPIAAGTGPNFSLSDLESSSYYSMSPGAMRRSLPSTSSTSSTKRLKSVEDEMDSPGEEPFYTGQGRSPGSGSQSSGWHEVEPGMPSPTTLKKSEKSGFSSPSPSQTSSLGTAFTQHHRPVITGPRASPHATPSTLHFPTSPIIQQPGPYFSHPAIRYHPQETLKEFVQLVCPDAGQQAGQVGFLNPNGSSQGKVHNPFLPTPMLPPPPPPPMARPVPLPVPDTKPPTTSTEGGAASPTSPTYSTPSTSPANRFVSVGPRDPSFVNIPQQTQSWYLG

RBPJ = RBPJ (Homo sapiens, UniProt Q06330); assay: as above; settings: protein: extract; label: 5' biotin (strand 1)
RBPJ, sequence (Q06330 whole entry): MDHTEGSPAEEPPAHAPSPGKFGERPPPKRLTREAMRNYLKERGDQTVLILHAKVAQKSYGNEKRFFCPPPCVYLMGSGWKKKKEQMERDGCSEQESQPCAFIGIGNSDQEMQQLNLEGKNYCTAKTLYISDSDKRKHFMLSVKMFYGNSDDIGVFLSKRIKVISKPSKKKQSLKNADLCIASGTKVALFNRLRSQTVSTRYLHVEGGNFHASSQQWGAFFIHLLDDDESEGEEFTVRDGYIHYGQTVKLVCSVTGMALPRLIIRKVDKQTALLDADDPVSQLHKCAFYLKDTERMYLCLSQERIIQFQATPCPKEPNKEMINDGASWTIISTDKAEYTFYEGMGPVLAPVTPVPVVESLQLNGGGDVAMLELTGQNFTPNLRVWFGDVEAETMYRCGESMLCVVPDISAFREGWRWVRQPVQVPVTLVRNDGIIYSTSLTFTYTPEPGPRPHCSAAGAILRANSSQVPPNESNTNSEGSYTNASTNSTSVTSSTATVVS

SP3 [1] = molecular target: T3, SP3 (Homo sapiens, UniProt Q02447); assay: as above; settings: protein: extract; label: 5' biotin (strand 1)
T3 sequence (Q02447 whole entry): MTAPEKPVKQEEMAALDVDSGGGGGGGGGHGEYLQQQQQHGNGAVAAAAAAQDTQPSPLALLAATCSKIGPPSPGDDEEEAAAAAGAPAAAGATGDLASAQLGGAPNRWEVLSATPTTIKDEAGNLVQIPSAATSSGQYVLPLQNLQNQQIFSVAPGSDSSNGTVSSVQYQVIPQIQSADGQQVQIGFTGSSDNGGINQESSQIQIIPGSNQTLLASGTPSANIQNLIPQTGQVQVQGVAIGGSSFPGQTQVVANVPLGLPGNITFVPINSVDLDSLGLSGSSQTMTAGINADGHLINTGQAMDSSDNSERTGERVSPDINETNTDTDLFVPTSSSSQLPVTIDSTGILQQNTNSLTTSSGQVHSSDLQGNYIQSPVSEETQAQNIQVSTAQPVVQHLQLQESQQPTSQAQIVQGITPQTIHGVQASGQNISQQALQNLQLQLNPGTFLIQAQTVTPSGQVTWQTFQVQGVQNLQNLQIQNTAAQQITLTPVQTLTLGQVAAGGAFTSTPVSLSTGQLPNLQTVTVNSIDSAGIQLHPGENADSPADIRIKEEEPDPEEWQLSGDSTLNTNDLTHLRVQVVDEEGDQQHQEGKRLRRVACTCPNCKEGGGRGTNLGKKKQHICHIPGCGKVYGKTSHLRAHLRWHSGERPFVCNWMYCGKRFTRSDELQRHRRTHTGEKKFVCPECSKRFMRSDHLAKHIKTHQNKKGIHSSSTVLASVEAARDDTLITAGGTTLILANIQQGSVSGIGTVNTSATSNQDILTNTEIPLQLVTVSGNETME

KLF3 = KLF3 (Homo sapiens, UniProt P57682); assay: as above; settings: protein: extract; label: 5' biotin (strand 1)
KLF3, sequence (P57682 whole entry): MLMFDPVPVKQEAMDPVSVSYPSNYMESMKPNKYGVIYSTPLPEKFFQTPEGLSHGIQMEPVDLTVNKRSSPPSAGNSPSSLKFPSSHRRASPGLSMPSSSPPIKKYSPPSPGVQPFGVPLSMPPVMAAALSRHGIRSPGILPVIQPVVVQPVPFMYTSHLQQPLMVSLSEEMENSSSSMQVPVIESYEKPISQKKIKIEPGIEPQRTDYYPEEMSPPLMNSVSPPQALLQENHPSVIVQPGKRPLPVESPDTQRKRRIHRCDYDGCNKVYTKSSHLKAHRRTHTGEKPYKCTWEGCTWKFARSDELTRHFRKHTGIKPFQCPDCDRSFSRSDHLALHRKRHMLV

KLF16 = KLF16 (Homo sapiens, UniProt Q9BXK1); assay: competition; 150 mM NaCl, 50 mM Tris pH 8, 0.25% NP-40, 1 mM TCEP; 4 C, 2 h; 100 ug HeLa nuclear lysate; free competitor against 200 nM immobilised SP/KLF wild-type; settings: protein: extract
SP4 = SP4 (Homo sapiens, UniProt Q02446); assay: as above; settings: protein: extract
SP4, sequence (Q02446 whole entry): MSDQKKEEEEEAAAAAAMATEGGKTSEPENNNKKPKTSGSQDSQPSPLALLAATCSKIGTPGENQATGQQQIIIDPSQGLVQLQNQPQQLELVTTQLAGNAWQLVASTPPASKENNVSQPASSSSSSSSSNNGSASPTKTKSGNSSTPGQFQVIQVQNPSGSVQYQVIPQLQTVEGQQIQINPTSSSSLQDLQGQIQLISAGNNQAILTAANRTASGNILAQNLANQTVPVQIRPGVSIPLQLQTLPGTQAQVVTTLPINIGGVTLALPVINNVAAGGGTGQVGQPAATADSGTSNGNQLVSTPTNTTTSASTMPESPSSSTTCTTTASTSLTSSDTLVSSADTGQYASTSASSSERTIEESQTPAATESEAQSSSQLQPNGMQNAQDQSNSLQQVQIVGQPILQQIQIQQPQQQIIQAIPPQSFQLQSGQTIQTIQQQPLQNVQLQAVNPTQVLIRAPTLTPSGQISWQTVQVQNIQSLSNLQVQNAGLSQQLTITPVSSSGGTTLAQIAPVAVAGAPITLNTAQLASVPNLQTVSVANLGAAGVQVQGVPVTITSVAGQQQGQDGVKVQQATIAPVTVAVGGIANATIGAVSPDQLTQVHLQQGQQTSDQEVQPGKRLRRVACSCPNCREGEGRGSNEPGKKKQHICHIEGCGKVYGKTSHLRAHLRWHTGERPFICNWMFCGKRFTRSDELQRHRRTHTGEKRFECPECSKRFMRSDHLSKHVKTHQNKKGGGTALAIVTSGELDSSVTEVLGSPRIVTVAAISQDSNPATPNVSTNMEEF

ZNF281 = molecular target: T2, ZNF281; assay: as above; settings: protein: extract
ZBTB7A = ZBTB7A (Homo sapiens, UniProt O95365); assay: as above; settings: protein: extract
SP3 [2] = molecular target: T3, SP3; assay: as above; settings: protein: extract
KLF4 = KLF4 (Homo sapiens, UniProt O43474); assay: as above; settings: protein: extract
KLF4, sequence (O43474 whole entry): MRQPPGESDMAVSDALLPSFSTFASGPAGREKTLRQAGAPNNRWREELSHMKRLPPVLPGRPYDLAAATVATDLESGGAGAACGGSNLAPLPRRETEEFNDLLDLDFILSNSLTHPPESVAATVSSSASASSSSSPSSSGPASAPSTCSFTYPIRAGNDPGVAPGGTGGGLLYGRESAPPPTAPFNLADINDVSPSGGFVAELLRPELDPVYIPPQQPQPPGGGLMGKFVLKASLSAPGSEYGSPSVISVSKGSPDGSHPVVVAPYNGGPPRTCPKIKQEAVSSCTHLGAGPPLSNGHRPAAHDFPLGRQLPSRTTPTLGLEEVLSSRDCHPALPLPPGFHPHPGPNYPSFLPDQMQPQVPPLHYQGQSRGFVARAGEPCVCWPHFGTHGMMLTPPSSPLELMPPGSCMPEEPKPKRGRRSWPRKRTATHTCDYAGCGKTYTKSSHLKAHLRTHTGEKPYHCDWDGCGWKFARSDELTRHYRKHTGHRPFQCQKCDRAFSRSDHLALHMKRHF

| Binder | apparent K (half saturation) (ZBTB7B) [nM] | apparent K (half saturation) (KLF10) [nM] | apparent K (half saturation) (TFAP2A) [nM] | apparent K (half saturation) (FOXL2) [nM] | apparent K (half saturation) (NFIA) [nM] | apparent K (half saturation) (RBPJ) [nM] | apparent K (half saturation) (SP3 [1]) [nM] | apparent K (half saturation) (KLF3) [nM] | IC50 (KLF16) [nM] | IC50 (SP4) [nM] | IC50 (ZNF281) [nM] | IC50 (ZBTB7A) [nM] | IC50 (SP3 [2]) [nM] | IC50 (KLF4) [nM] |
| --- | --- | --- | --- | --- | --- | --- | --- | --- | --- | --- | --- | --- | --- | --- |
| TATA-box (dsDNA) DNA 1: GCGGCGCTCTATATAAGTGGGCAGTG DNA 2: CACTGCCCACTTATATAGAGCGCCGC | 230 | 84.5 | 328 | 140 |  |  |  |  |  |  |  |  |  |  |
| CTCF (dsDNA) DNA 1: TCAGAGTGGCGGCCAGCAGGGGGCGCCCTTGCCAGA DNA 2: TCTGGCAAGGGCGCCCCCTGCTGGCCGCCACTCTGA | 39.2 | 41.2 | 83.3 |  | 72.8 | 376 | 72 | 124 |  |  |  |  |  |  |
| TEAD (dsDNA) DNA 1: TCGGGACCCAGGCCTGGAATGTTTCCACC DNA 2: GGTGGAAACATTCCAGGCCTGGGTCCCGA |  |  | 193 | 140 | 119 | 208 |  |  |  |  |  |  |  |  |
| SP/KLF wild-type (dsDNA) DNA 1: GAGAGCCCCGCCCCCTGGCT DNA 2: AGCCAGGGGGCGGGGCTCTC |  |  | 196 |  |  |  | 19.3 | 61.9 | 176 | 87.5 | 176 | 263 | 147 | 229 |
